Measurements from PMC3825789 (Nature biotechnology, 2013).

Molecular target: insulin (Homo sapiens (species ), UniProt P01308)
Assay: ELISA

Chain of insulin (P01308 whole entry, looked up): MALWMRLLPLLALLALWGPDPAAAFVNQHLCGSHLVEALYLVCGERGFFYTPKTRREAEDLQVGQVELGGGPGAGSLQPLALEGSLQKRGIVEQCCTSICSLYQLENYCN

| binding result | Binder |
| --- | --- |
| no binding | ibalizumab L chain mutant LM52 (antibody, V domains shown) VH: QVQLQQSGPEVVKPGASVKMSCKASGYTFTSYVIHWVRQKPGQGLDWIGYINPYNDGTDYDEKFKGKATLTSDTSTSTAYMELSSLRSEDTAVYYCAREKDNYATGAWFAYWGQGTLVTVSS VL: DIVMTQSPDSLAVSLGERVTMNCKSSQSLLYSTNQKNYLAWYQQKPGQSPKLLIYWANSTESGVPDRFSGSGSGTDFTLTISSVQAEDVAVYYCQQYYSYRTFGGGTKLEIK |
| no binding | ibalizumab (wild type) (antibody, V domains shown) VH: QVQLQQSGPEVVKPGASVKMSCKASGYTFTSYVIHWVRQKPGQGLDWIGYINPYNDGTDYDEKFKGKATLTSDTSTSTAYMELSSLRSEDTAVYYCAREKDNYATGAWFAYWGQGTLVTVSS VL: DIVMTQSPDSLAVSLGERVTMNCKSSQSLLYSTNQKNYLAWYQQKPGQSPKLLIYWASTRESGVPDRFSGSGSGTDFTLTISSVQAEDVAVYYCQQYYSYRTFGGGTKLEIK |
